The target of assay [1] is T1, carrier free RGMa (R&D Systems) (UniProt Q96B86 48-422, limits assumed).
T1 construct: also called RGMa-CF
T1 sequence (looked up): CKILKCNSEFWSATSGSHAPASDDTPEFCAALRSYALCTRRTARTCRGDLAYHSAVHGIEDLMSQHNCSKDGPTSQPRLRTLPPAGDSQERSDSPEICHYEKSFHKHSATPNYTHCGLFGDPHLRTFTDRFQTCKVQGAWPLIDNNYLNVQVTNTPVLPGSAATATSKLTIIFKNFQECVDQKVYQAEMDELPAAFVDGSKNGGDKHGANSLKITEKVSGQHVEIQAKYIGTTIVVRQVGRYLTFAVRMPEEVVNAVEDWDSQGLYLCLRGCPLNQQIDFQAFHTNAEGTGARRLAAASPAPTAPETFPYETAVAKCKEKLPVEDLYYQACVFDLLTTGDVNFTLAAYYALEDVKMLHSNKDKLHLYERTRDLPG
The assay can be described thus: EIA on coated carrier-free RGMa (summary of specificity). On the procedure: (§1) Clones were then tested for cross-reactivity with RGMa and RGMb by EIA. Carrier free RGMa, RGMb, or RGMc (R&D Systems) was coated on the solid phase of micro-titer EIA plates at 0.5 ug/mL. After the antigen had been coated on the solid phase, it was removed and any open binding sites on the plates were blocked using fish gel block solution. The wells were washed with distilled water following this incubation. Cell supernatants and control reagents were added to the blocked plates and allowed to incubate at room temperature for at least one hour. The negative control was a purified mouse mAb from a different antigen system. The positive control for RGMa, RGMb, & RGMc was a goat anti-RGMa, RGMb, or RGMc polyclonal antibody (R&D Systems). Following this incubation, the solutions were removed from the plates and they were washed with distilled water. Donkey anti-Goat IgG-HRPO diluted to approximately 200 ng/mL in block solution was added to the plates with the positive control test samples and goat anti-mouse IgG-HRPO (Jackson Immunoresearch) diluted to approximately 200 ng/mL in block solution was added to the plates with the fusion #1 test samples. All plates were allowed to incubate for 30 minutes at room temperature. The plates were washed with distilled water and o-phenylenediamine substrate was used as the chromogen to generate signal. Plates were read at 492 nm and the results were analyzed.

Assay [2] concerns the target T2, carrier free RGMb (R&D Systems) (UniProt Q6NW40 46-413, limits assumed).
T2 construct: also called RGMb-CF
T2 sequence (looked up): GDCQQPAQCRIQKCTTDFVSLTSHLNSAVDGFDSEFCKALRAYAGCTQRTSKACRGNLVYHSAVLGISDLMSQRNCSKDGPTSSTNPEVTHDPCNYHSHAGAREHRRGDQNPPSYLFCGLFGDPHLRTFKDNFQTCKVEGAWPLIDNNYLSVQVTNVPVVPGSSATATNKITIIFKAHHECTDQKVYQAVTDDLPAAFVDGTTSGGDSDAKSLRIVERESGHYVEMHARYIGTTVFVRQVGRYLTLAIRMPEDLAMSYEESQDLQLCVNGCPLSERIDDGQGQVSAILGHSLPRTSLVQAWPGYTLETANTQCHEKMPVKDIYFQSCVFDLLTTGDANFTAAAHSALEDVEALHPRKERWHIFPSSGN
The assay can be described thus: EIA on coated carrier-free RGMb (summary of specificity). On the procedure: as §1

Assay [3] concerns the target T3, RGMc antigen: amino acids 33-391 of RGMc followed by human Fc (human, UniProt Q6ZVN8 33-391).
T3 construct: also called RGMc-huFc; RGMc-Fc; not shown: human Fc
T3 sequence: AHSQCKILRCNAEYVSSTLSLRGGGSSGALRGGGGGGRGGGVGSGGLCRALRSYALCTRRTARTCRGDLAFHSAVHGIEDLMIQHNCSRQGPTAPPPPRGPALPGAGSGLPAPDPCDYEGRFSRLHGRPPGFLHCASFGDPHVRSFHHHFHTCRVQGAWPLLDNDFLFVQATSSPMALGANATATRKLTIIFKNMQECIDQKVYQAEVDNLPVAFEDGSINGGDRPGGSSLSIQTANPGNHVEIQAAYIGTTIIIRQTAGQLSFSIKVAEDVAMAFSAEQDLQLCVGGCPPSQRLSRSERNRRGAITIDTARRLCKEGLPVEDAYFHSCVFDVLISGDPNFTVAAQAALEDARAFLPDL
The assay can be described thus: chemiluminescence immunoassay: supernatant mAb captured on sheep anti-mouse IgG Fc, RGMc-huFc at 200 ng/mL, acridinium-labeled goat anti-RGMc detection. On the procedure: Cell supernatant samples were analyzed for anti-RGMc antibodies by Chemiluminescence immunoassay (CIA). Sheep anti-mouse IgG Fc (Jackson Immunoresearch, West Grove, Pa.) was coated on 96 well micro-titer CIA plates (NUNC) at 5 ug/mL. After the capture reagent had been coated on the solid phase, it was removed and any open binding sites on the plates were blocked using a Fish gel/PBS (2% v/v) block solution. The wells were washed with distilled water and cell supernatants were added to the blocked plates and allowed to incubate at room temperature for at least one hour. The anti-mouse IgG Fc captures the anti-RGMc mouse antibody from the supernatant. Following the incubation, the supernatants were washed off using distilled water. A mouse/human IgG chimeric antibody (Abbott Laboratories) diluted in fish gel block to 5 ug/ml was added to each well and incubated for approximately 30 minutes at room temperature to block any captured mAbs that are specific for human IgG Fc portion of the immunogen. Following the incubation, the human IgG blocking solution was washed off using distilled water. RGMc-huFc antigen was then added to the plates at 200 ng/mL in fish gel block and incubated for 30 minutes at room temperature. Following this incubation, the antigen was washed from the plates using distilled water. Acridinium labeled goat anti-RGMc polyclonal antibody (R&D Systems, Minneapolis, Minn.) was diluted to 200 ng/ml in fish gel block, then added to the plates and allowed to incubate for 30 minutes at room temperature. The plates were washed with distilled water then processed on the Microbeta Jet instrument (Perkin Elmer, Waltham, Mass.). The Microbeta Jet adds Architect© Pre-Trigger and Trigger solutions (Abbott Laboratories). The plates are then read for flash chemiluminescence in luminescent counts per second (LCPS). […] The positive control (PC) used in this assay was spent medium from unfused splenocytes harvested from mouse #814 that were cultured for 7 to 10 days at 37° C.

In assay [4] the target is T4, carrier free RGMc (R&D Systems) (human, UniProt Q6ZVN8 36-400).
T4 construct: also called RGMc-CF
T4 sequence (looked up): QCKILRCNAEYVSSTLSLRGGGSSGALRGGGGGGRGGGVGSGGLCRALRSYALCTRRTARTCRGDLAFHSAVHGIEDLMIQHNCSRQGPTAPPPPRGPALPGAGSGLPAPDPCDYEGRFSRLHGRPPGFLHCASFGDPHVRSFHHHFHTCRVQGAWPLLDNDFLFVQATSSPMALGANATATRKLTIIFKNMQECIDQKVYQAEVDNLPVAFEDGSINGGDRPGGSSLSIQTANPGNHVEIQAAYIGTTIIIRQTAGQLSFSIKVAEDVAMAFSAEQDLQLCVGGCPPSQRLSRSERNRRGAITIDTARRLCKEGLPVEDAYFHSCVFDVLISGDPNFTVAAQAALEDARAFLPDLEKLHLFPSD
The assay can be described thus: … two-step sandwich chemiluminescent assay; 1A-2493-121 on microparticles as capture, goat polyclonal AF3720 conjugate as detection.

Assay [5] has as its target T3, RGMc antigen: amino acids 33-391 of …. The assay can be described thus: … two-step sandwich chemiluminescent assay; 1A-2493-121 on microparticles as capture, goat polyclonal AF3720 CPSP conjugate as detection. On the procedure:
The Architect assay is a two-step assay format, wherein a 30 μl sample is mixed with 50 μl of line diluent. […] At the end of 18 minutes, unbound sample is washed away. 50 μl of R&D System Goat polyclonal AF3720 CPSP conjugate at 800 ng/mL was added to the mixture, vortexed, and incubated for 4 minutes. […] The relative light units are then measured.

The target is the same in assay [6]. The assay can be described thus: direct EIA: RGMc-huFc coated at 1.0 ug/mL; supernatant diluted 1:125; goat anti-mouse IgG Fc-HRPO. On the procedure: (§2) A mouse:human chimeric antibody or RGMc-huFc was coated on the solid phase of micro-titer EIA plates at 1.0 ug/mL. After the antigen had been coated on the solid phase, it was removed and any open binding sites on the plates were blocked using BSA block solution. The wells were washed with distilled water. Cell supernatants and control reagents were added to the blocked plates and allowed to incubate at room temperature for at least one hour. The negative control was a purified mAb from a different antigen system. The positive control for human IgG was a purified anti-hu IgG mAb developed against another antigen containing human IgG Fc carrier protein. The RGMc positive control is Novus mab 1C12. Following this incubation, the solutions were removed from the plates and they were washed with distilled water. Goat anti-mouse IgG Fc-HRPO (Jackson Immunoresearch) diluted to approximately 200 ng/mL in block solution was added to the plates and allowed to incubate for 30 minutes at room temperature. The plates were washed with distilled water and o-phenylenediamine substrate (Abbott Laboratories) was used as the chromogen to generate signal. Plates were read at 492 nm and the results were analyzed.

Assay [7] has as its target T5, mouse:human chimeric antibody (used as human IgG / human IgG Fc antigen).
T5 construct: also called Hu IgG; human IgG Fc portion
Put plainly: direct EIA: mouse:human chimeric antibody coated at 1.0 ug/mL; supernatant diluted 1:125; goat anti-mouse IgG Fc-HRPO. Here is the method:
as §2

Consider three molecules from patent US20130330359A1 (AbbVie / Abbott, published 2013).

B1: 1A-2258-107 (antibody, V domains shown)
VH: EVQLVESGGGLVKPGGSLKLSCAASGFTFSDYFMFWVRQTPEKRLEWVATISDGGSYTYYSDSVKGRFTISRDNAKNNLFLQMSSLKSEDTAMYYCARDKYGDYDAMDYWGQGTSVTVSS
VL: DVVLTQSPASLAVSLGQRATISCKASQSVDYDSDSYMNWYQQKPGQPPKLLIYAASNLESGIPARFSGGGSGTDFTLNIHPVEEEDAATYYCQQSNEDPPTFGGGTKLEIKR
In the case of B1, the binding result in assay [1] and in assay [2] was “no binding” throughout. This molecule yielded an LCPS in assay [3] of 2640 LCPS.

B2: anti-RGMc 1A-2493-121 monoclonal antibody (antibody, V domains shown)
VH: DVQLQASGPDLVKPSQSLSLTCTVTGYSITSGYSWHWIRQFPGNKLEWMAYIHYTGDSNYNPSLKSRISITRDTSKNQFFLQLTSVTTEDTATYYCALFGLSGYWGQGTLVTVSA
VL: DVLMTQTPLSLPVSLGDQASISCRSSQNIIHSNGNTYLDWYLQKPGQSPKVLIYKVSNRFSGVPDRFSGSGSGTDFILKISRVEAEDLGVYYCLQGSHVPWTFGGGTKLEIKR
B2: the binding result in assay [4] and in assay [5] was “binds” each time.

B3: 1A-2151-163 (antibody, V domains shown)
VH: EVQLQQSGPELLKPGASVKISCKASGYSFTDNTIHWVKQSQRKSLEWIGGISPRYGDIRYNVQFKDKATLTVDKSSSTAYMELRSLTSEDSAVYYCTRWDDGYYEDYAMDYWGQGTSVTVSS
VL: DILLTQSPAILSVSPGERVSFSCRASQSIGTSLHWYQQRRNGSPRLLIKYASESISGIPSRFSGSGSGTDFTLSINTVESEDIADYYCQQSNSWPYTFGGGTKLEIKR
For B3, the binding result in assay [1] and in assay [2] was “no binding” each time. Further, the “absorbance at 492 nm” value in assay [6] was 1.25; in assay [7] it was 0.07. Besides, in assay [3], the LCPS worked out at 4390 LCPS.
